Consider seven molecules from patent publication US20200199241A1 (Chugai, published 2020).

The chains are these.
B1: IL6R-B3/IL6R-L (antibody, human IgG1)
heavy: not shown
light: DIQMTQSPSSLSASVGDRVTITCRASQDISSYLNWYQQKPGKAPKLLIYYTSRLHSGVPSRFSGSGSGTDFTFTISSLQPEDIATYYCQQGNTLPYTFGQGTKVEIK
notes: IgG1; IL6R-G1d with K439E (EU); also called parent polypeptide; copies: 2 + 2
B2: IL6R-G1d/IL6R-L (antibody, human IgG1)
heavy: not shown
light: B1 light
notes: IgG1 (G1d constant region) antibody to human IL-6 receptor; also called IgG1 (IL6R-G1d); copies: 2 + 2
B3: IL6R-BF648/IL6R-L (antibody, human IgG1)
heavy: not shown
light: B1 light
notes: IgG1; Fc variant of IL6R-B3; control (= 100) of the relative values; copies: 2 + 2
B4: IL6R-BP119/IL6R-L (antibody, human IgG1)
heavy: QVQLQESGPGLVKPSETLSLTCAVSGHSISHDHAWSWVRQPPGEGLEWIGFISYSGITNYNPSLQGRVTISRDNSKNTLYLQMNSLRAEDTAVYYCARSLARTTAMDYWGEGTLVTVSSASTKGPSVFPLAPSSKSTSGGTAALGCLVKDYFPEPVTVSWNSGALTSGVHTFPAVLQSSGLYSLSSVVTVPSSSLGTQTYICNVNHKPSNTKVDKKVEPKSCDKTHTCPPCPAPELLGGDSVFLFPPKPKDTLMISRTPEVTCVVVDVSHEDPEVKFNWYVDGVEVHNAKTKPREEQYNSTYRVVSVLTVLHQDWLNGKEYKCKVSNMALPAPIEKTISKAKGQPREPQVYTLPPSRDELTKNQVSLTCLVKGFYPSDIAVEWESNGQPENNYKTTPPVLDSDGSFFLYSKLTVDKSRWQQGNVFSCSVMHEALHNHYTQESLSLSP
light: B1 light
notes: IgG1; Fc variant of IL6R-B3; copies: 2 + 2
B5: IL6R-BP118/IL6R-L (antibody, human IgG1)
heavy: B4 heavy with M328S
light: B1 light
notes: as for B4
B6: VH3-IgG2-F890/L(WT)-CK (antibody)
heavy: QVQLQESGPGLVKPSETLSLTCAVSGHSISHDHAWSWVRQPPGEGLEWIGFISYSGITNYNPSLQGRVTISRDNSKNTLYLQMNSLRAEDTAVYYCARSLARTTAMDYWGEGTLVTVSSASTKGPSVFPLAPCSRSTSESTAALGCLVKDYFPEPVTVSWNSGALTSGVHTFPAVLQSSGLYSLSSVVTVPSSNFGTQTYTCNVDHKPSNTKVDKTVERKCCVECPPCPAPPVAGPSVFLFPPKPKDTLYISRTPEVTCVVVDVSHEDPEVQFNWYVDGVEVHNAKTKPREEQFNSTFRVVSVLTVVHQDWLNGKEYKCKVSNKGLPAPIEKTISKTKGQPREPQVYTLPPSREEMTKNQVSLTCLVKGFYPSDIAVEWESNGQPENNYKTTPPMLDSDGSFFLYSKLTVDKSRWQQGNVFSCSVMHEALHYHVTQKSLSLSP
light: not shown
notes: M252Y/N434Y/Y436V in VH3-IgG2; copies: 2 + 2
B7: VH3-IgG2/L(WT)-CK (antibody)
heavy: B6 heavy with Y250M, Y432N, V434Y
light: not shown
notes: copies: 2 + 2

Residue numbers refer to the chain shown, from its start. Numbers in names are those of the source.

The target of the first assay is T1, FcγRIa (human, UniProt P12314 16-292, limits assumed).
T1 construct: also called FcgRIa; CD64
T1 sequence (P12314 16-292 limits assumed): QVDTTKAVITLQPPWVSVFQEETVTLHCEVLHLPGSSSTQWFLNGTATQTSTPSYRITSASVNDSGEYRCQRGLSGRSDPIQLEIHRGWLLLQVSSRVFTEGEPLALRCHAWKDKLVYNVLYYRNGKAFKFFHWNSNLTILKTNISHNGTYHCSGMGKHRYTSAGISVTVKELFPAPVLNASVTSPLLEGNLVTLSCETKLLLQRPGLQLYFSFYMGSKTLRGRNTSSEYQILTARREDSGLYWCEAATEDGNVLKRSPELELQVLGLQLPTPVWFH
Kind of assay: SPR (Biacore), FcγR over captured antibody. In general terms: SPR reads the build-up and loss of mass on a sensor chip optically.
In turn, B1 displayed a dissociation constant Kd of 0.42 nM. In other words, the sub-nanomolar range.
For the molecule B2, the Kd was found to be 0.32 nM.
For the molecule B3, binding was put at a Kd of 11 nM.
Still for that read-out and setting: next, B4: 7 nM.
In the case of B5, the Kd came to 12 nM.

The target in a further assay is T2, FcγRIIa type R (human, UniProt P12318 36-217).
T2 construct: also called FcγRIIaR; FcgRIIaR
T2 chain: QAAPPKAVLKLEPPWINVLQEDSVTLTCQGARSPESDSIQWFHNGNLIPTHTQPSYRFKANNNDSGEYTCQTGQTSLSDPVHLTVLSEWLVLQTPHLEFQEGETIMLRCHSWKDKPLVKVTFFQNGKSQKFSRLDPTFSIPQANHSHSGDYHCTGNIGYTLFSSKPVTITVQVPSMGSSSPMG
Briefly: SPR (Biacore), FcγR over captured antibody.
For B1, the dissociation constant (Kd) amounted to 1.1 µM.
Molecule B2 yielded a Kd of 1 µM.
In the case of B3, the Kd is 15 µM. This Kd is about 15-fold higher than that of the molecule before.
Regarding B4, binding was characterised by a dissociation constant (Kd) of 9.9 µM.
Still for that read-out and setting: next, B5: 15 µM.

The target in another assay is T3, FcγRIIa type H (human, UniProt P12318 36-217).
T3 construct: also called FcγRIIaH; FcγRIIH
T3 sequence: T2 chain with R133H
Briefly: SPR (Biacore), FcγR over captured antibody.
For the molecule B1, the affinity, expressed as Kd, was 0.77 µM.
Still for that read-out and setting: next, B2: 0.67 µM.
B3 gave an equilibrium dissociation constant (Kd) of 40 µM. Against the preceding molecule, the Kd is about 60-fold higher.
In turn, B4 displayed a dissociation constant (Kd) of 45 µM.
Still for that read-out and setting: next, B5: 46 µM.

For the next assay, the target named is T4, FcγRIIb (human, UniProt P31994 43-217, limits assumed).
T4 construct: also called FcgRIIb; FcγIIB
T4 sequence: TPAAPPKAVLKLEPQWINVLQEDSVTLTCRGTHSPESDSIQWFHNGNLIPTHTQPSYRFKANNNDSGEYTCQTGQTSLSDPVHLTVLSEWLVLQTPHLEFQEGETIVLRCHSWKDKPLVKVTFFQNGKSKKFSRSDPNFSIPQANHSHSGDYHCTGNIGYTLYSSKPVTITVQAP
Kind of assay: SPR (Biacore), FcγR over captured antibody.
B1: the equilibrium dissociation constant (Kd) stood at 3100 nM.
B2: binding was put at a Kd of 2600 nM.
Still for that read-out and setting: next, B3: 1200 nM.
For the molecule B4, binding was characterised by a dissociation constant (Kd) of 1100 nM.
Still for that read-out and setting: next, B5: 1200 nM.

The target in the next assay is T5, FcγRIIIa type V (human, UniProt P08637 17-208, limits assumed).
T5 construct: also called FcγRIIIaV; FcgRIIIaV
T5 sequence (P08637 other isoform, or with tags, fused parts or gaps limits assumed): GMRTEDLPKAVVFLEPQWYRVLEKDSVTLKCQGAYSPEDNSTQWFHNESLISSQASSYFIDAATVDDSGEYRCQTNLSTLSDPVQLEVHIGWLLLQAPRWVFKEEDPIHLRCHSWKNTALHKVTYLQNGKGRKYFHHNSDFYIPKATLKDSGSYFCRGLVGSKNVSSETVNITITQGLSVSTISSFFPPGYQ
Kind of assay: SPR (Biacore), FcγR over captured antibody.
For B1, binding was characterised by a dissociation constant (Kd) of 0.33 µM.
Still for that read-out and setting: next, B2: 0.35 µM.
On to B3, for which the affinity, expressed as Kd, was 71 µM.
With B4, the Kd turned out to be 56 µM.
On the same count and under the same terms, next, B5: 56 µM.

For the next assay, the target named is T6, human FcγRIa (human, UniProt P12314 16-292, limits assumed).
T6 construct: also called FcgRIa; hFcgRIa
T6 sequence (P12314 16-292 limits assumed): as the sequence (P12314 16-292 limits assumed) above
Briefly: SPR, pH 7.4, antibody captured by Protein L.
Description: (§1) Binding activity between the antibodies and human FcγRIa, FcγRIIa(H), FcγRIIa(R), FcγRIIb and FcγRIIIa(F) (hereinafter referred to as human FcγRs) was evaluated using the BIACORE™ T100 or T200 surface plasmon resonance system (GE Healthcare). The antibodies being tested were captured by Protein L (ACTIGEN® protein (Alltech)) that was immobilized in suitable amounts on the CM4 Sensor Chip (GE Healthcare) by amine coupling. Next, the diluted human FcγRs and a running buffer used as a blank were injected to allow interaction with the antibodies captured on the sensor chip. A buffer consisting of 20 mmol/L N-(2-acetamido)-2-aminoethanesulfonic acid (ACES), 150 mmol/L NaCl and 0.05% (w/v) polysorbate 20 (Tween 20®) (pH 7.4) was used for the running buffer, and this buffer was also used to dilute the human FcγRs. 10 mmol/L glycine-HCl (pH 1.5) was used to regenerate the sensor chip. All measurements were carried out at 25° C.
As for B6, the binding amount is 19.7 RU.
In turn, B7 returned a binding amount of 38.6 RU.

The next assay has as its target T7, human FcγRIIa(R) (human, UniProt P12318 36-217).
T7 construct: also called FcgRIIaR; hFcgRIIa(R)
T7 chain: T2 chain
Briefly: SPR, pH 7.4, antibody captured by Protein L.
Description: as §1
For B6, the binding amount came to 120 RU.
Same read-out and setting: next, B7: 188 RU.

In another assay the target is T8, human FcγRIIa(H) (human, UniProt P12318 36-217).
T8 construct: also called FcgRIIaH; hFcgRIIa(H)
T8 sequence: T2 chain with R133H
Briefly: SPR, pH 7.4, antibody captured by Protein L.
Description: as §1
The molecule B6 yielded a binding amount of 204 RU.
For the molecule B7, the binding amount came to 266 RU.

Another assay concerns the target T9, human FcγRIIb (human, UniProt P31994 43-217, limits assumed).
T9 construct: also called FcgRIIb; hFcgRIIb
T9 sequence: T4 sequence
Kind of assay: SPR, pH 7.4, antibody captured by Protein L.
Description: as §1
In turn, B6 showed a binding amount of 31.9 RU.
The same measure, in the same setting: next, B7: 55.5 RU.

Another assay deals with T10, human FcγRIIIa(V) (human, UniProt P08637 17-208, limits assumed).
T10 construct: also called hFcgRIIIa(V); FcγRIIIa allotype V158
T10 sequence (P08637 other isoform, or with tags, fused parts or gaps limits assumed): as the sequence (P08637 other isoform, or with tags, fused parts or gaps limits assumed) above
Briefly: SPR, pH 7.4, antibody captured by Protein L.
Description: as §1
For the molecule B6, the binding amount was determined as 28.1 RU.
The same measure, in the same setting: next, B7: 50.1 RU.

In another assay the target is T1, FcγRIa. Briefly: SPR (Biacore), bound amount, IL6R-BF648/IL6R-L = 100.
Description: (§2) According to the following method, relative binding activities were calculated for the results of analyzing interactions with the respective FcγRs.
As to B1, the relative binding activity is 145 % of control.
Still for that read-out and setting: next, B2: 140 % of control; B3: 100 % of control.

In a further assay the target is T3, FcγRIIa type H. Described as above.
Description: as §2
As for B1, the relative binding activity is 1600 % of control.
B2: the relative binding activity was 1670 % of control.
Still for that read-out and setting: next, B3: 100 % of control.

In another assay the target is T4, FcγRIIb. The assay is described as above.
Description: as §2
Take B1: the relative binding activity was 58 % of control.
As to B2, the relative binding activity is 62 % of control.
For B3, the relative binding activity was 100 % of control.

Another assay deals with T5, FcγRIIIa type V. The description is as above.
Description: as §2
For the molecule B1, the relative binding activity was 3260 % of control.
On the same count and under the same terms, next, B2: 3350 % of control.
On the same count and under the same terms, next, B3: 100 % of control.

The next assay has as its target T4, FcγRIIb. Briefly: SPR (Biacore), KD of IL6R-B3/IL6R-L divided by KD of the variant.
Excerpt: Furthermore, KD(IIaR)/KD(IIb) and KD(IIaH)/KD(IIb) in the table respectively represent the value obtained by dividing the KD value of each variant for FcγRIIaR by the KD value of each variant for FcγRIIb, and the value obtained by dividing the KD value of each variant for FcγRIIaH by the KD value of each variant for FcγRIIb. KD(IIb) of the parent polypeptide/KD(IIb) of the altered polypeptide refers to the value obtained by dividing the KD value of the parent polypeptide for FcγRIIb by the KD value of each variant for FcγRIIb.
B1: the “KD(IIb) of the parent polypeptide/KD(IIb) of altered polypeptide” value was determined as 1 fold.
For B2, the “KD(IIb) of the parent polypeptide/KD(IIb) of altered polypeptide” value stood at 1.2 fold.
Same read-out and setting: next, B3: 2.6 fold; B4: 2.7 fold.
The same measure, in the same setting: next, B5: 2.7 fold.

Another assay concerns the target T4, FcγRIIb. Briefly: SPR (Biacore); KD for FcγRIIaH divided by KD for FcγRIIb of the same antibody.
Excerpt: Furthermore, KD(IIaR)/KD(IIb) and KD(IIaH)/KD(IIb) in the table respectively represent the value obtained by dividing the KD value of each variant for FcγRIIaR by the KD value of each variant for FcγRIIb, and the value obtained by dividing the KD value of each variant for FcγRIIaH by the KD value of each variant for FcγRIIb.
Regarding B1, the “KD(IIaH)/KD(IIb)” value turned out to be 0.2.
With B2, the “KD(IIaH)/KD(IIb)” value is 0.3.
Consider B3, for which the “KD(IIaH)/KD(IIb)” value stood at 33.9.
As for B4, the “KD(IIaH)/KD(IIb)” value came out at 39.5.
Take B5: the “KD(IIaH)/KD(IIb)” value was determined as 40.

Another assay concerns the target T4, FcγRIIb. Briefly: SPR (Biacore); KD for FcγRIIaR divided by KD for FcγRIIb of the same antibody.
In the case of B1, the “KD(IIaR)/KD(IIb)” value is 0.3.
Consider B2, for which the “KD(IIaR)/KD(IIb)” value came to 0.4.
The same measure, in the same setting: next, B3: 13.
Regarding B4, the “KD(IIaR)/KD(IIb)” value was determined as 8.7.
With B5, the “KD(IIaR)/KD(IIb)” value turned out to be 13.2.

One may read the Kd as a measure of binding affinity in units of concentration. A lower Kd goes with higher affinity.
